In publication PMC3506662, “The Peripheral Binding of 14-3-3γ to Membranes Involves Isoform-Specific Histidine Residues” (PLoS ONE, 2012):
Where no end group is shown, it is not given here. [ ]: non-standard residue; d: D form. pS = N[C@@H](COP(=O)(O)O)C(=O)O

Key:
human 14-3-3γ, wild-type [1] = biological target: T1, human 14-3-3γ, wild-type (human, UniProt P61981 2-247); assay: SPR; data not shown; Biacore 3000, 25°C; wt-d14-3-3γ immobilised by amine coupling on CM5 (about 5 000 RU); THp-(1-43) injected in 10 mM Na-Hepes, pH 7.4, 0.005% P20; 0 mM salt; conditions: both partners purified
T1 construct: 14-3-3 protein gamma, human; d14-3-3γ is the same protein after extensive dialysis into phosphate-free 10 mM Na-Hepes, pH 7.4; also called wt-14-3-3γ; d14-3-3γ; source: E. coli (BL-21, codon+), GST fusion purified on glutathione-Sepharose 4B, cleaved by thrombin, further purified
T1 sequence: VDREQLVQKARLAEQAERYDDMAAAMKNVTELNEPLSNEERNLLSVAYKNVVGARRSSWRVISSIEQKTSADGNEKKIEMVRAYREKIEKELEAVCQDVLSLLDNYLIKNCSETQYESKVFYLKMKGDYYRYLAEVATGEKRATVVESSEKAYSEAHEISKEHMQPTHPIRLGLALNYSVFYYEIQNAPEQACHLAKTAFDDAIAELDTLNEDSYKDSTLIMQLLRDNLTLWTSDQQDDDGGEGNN

human 14-3-3γ, wild-type [2] = biological target: T1, human 14-3-3γ, wild-type; assay: differential scanning fluorimetry; d14-3-3γ titrated with peptide from a 0.21 mM stock; SYPRO Orange; 20 to 95°C at 2°C/min; shift of Tm fitted to equation 1; legend: 10 µM subunit in 10 mM Na-Hepes, pH 7.4, 150 mM NaCl; conditions: both partners purified

B1: THp-(1-43), Ser19-phosphorylated N-terminal peptide of human tyrosine hydroxylase isoform 1 (peptide)
peptide: MPTPDATTPQAKGFRRAV[pS]ELDAKQAEAIMSPRFIGRRQSLIE
notes: also called phosphopeptide; source: synthetic peptide (CPC Scientific), approx. 90% purity
Human 14-3-3γ, wild-type [1]
  Kd: ~220 nM
Human 14-3-3γ, wild-type [2]
  Kd: ~190 nM
